According to article PMC10806991, “Substrate promiscuity of Dicer toward precursors of the let-7 family and their 3′-end modifications”:

B1: pre-let-7a-1 mono-U (structured_RNA)
RNA: UGAGGUAGUAGGUUGUAUAGUUUUAGGGUCACACCCACCACUGGGAGAUAACUAUACAAUCUACUGUCUUUCU
modifications: 5'-monophosphate; 3'-OH; one extra 3' U
B2: pre-let-7b mono-U (structured_RNA)
RNA: UGAGGUAGUAGGUUGUGUGGUUUCAGGGCAGUGAUGUUGCCCCUCGGAAGAUAACUAUACAACCUACUGCCUUCCU
modifications: 5'-monophosphate; 3'-OH; one extra 3' U
B3: pre-let-7d mono-U (structured_RNA)
RNA: AGAGGUAGUAGGUUGCAUAGUUUUAGGGCAGGGAUUUUGCCCACAAGGAGGUAACUAUACGACCUGCUGCCUUUCU
modifications: 5'-monophosphate; 3'-OH; one extra 3' U
B4: pre-let-7g mono-U (structured_RNA)
RNA: UGAGGUAGUAGUUUGUACAGUUUGAGGGUCUAUGAUACCACCCGGUACAGGAGAUAACUGUACAGGCCACUGCCUUGCU
modifications: 5'-monophosphate; 3'-OH; one extra 3' U
B5: pre-miR-98 mono-U (structured_RNA)
RNA: UGAGGUAGUAAGUUGUAUUGUUGUGGGGUAGGGAUAUUAGGCCCCAAUUAGAAGAUAACUAUACAACUUACUACUUUCCU
modifications: 5'-monophosphate; 3'-OH; one extra 3' U
B6: pre-let-7a-1 (7a1) (structured_RNA)
RNA: UGAGGUAGUAGGUUGUAUAGUUUUAGGGUCACACCCACCACUGGGAGAUAACUAUACAAUCUACUGUCUUUC
modifications: 5'-monophosphate; 3'-OH
B7: pre-let-7i (7i) (structured_RNA)
RNA: UGAGGUAGUAGUUUGUGCUGUUGGUCGGGUUGUGACAUUGCCCGCUGUGGAGAUAACUGCGCAAGCUACUGCCUUGC
modifications: 5'-monophosphate; 3'-OH
B8: pre-miR-98 (m98) (structured_RNA)
RNA: UGAGGUAGUAAGUUGUAUUGUUGUGGGGUAGGGAUAUUAGGCCCCAAUUAGAAGAUAACUAUACAACUUACUACUUUCC
modifications: 5'-monophosphate; 3'-OH
B9: pre-let-7a-3 (7a3) (structured_RNA)
RNA: UGAGGUAGUAGGUUGUAUAGUUUGGGGCUCUGCCCUGCUAUGGGAUAACUAUACAAUCUACUGUCUUUC
modifications: 5'-monophosphate; 3'-OH
B10: pre-let-7b (7b) (structured_RNA)
RNA: UGAGGUAGUAGGUUGUGUGGUUUCAGGGCAGUGAUGUUGCCCCUCGGAAGAUAACUAUACAACCUACUGCCUUCC
modifications: 5'-monophosphate; 3'-OH
B11: pre-let-7d (7d) (structured_RNA)
RNA: AGAGGUAGUAGGUUGCAUAGUUUUAGGGCAGGGAUUUUGCCCACAAGGAGGUAACUAUACGACCUGCUGCCUUUC
modifications: 5'-monophosphate; 3'-OH
B12: pre-let-7f-2 (7f2) (structured_RNA)
RNA: UGAGGUAGUAGAUUGUAUAGUUUUAGGGUCAUACCCCAUCUUGGAGAUAACUAUACAGUCUACUGUCUUUC
modifications: 5'-monophosphate; 3'-OH
B13: pre-let-7g (7g) (structured_RNA)
RNA: UGAGGUAGUAGUUUGUACAGUUUGAGGGUCUAUGAUACCACCCGGUACAGGAGAUAACUGUACAGGCCACUGCCUUGC
modifications: 5'-monophosphate; 3'-OH
B14: pre-let-7a-2 (7a2) (structured_RNA)
RNA: UGAGGUAGUAGGUUGUAUAGUUUAGAAUUACAUCAAGGGAGAUAACUGUACAGCCUCCUAGCUUUCC
modifications: 5'-monophosphate; 3'-OH
B15: pre-let-7c (7c) (structured_RNA)
RNA: UGAGGUAGUAGGUUGUAUGGUUUAGAGUUACACCCUGGGAGUUAACUGUACAACCUUCUAGCUUUCC
modifications: 5'-monophosphate; 3'-OH
B16: pre-let-7e (7e) (structured_RNA)
RNA: UGAGGUAGGAGGUUGUAUAGUUGAGGAGGACACCCAAGGAGAUCACUAUACGGCCUCCUAGCUUUCC
modifications: 5'-monophosphate; 3'-OH
B17: pre-miR-202 (m202) (structured_RNA)
RNA: UUCCUAUGCAUAUACUUCUUUGAGGAUCUGGCCUAAAGAGGUAUAGGGCAUGGGAAAA
modifications: 5'-monophosphate; 3'-OH

What follows are molecules tested against ciDicer (catalytically inactive human Dicer) D1320A;D1709A (Homo sapiens) (UniProt Q9UPY3) (assay: EMSA). Settings: 5'-monophosphate; 3'-OH; EMSA: 50 mM Tris pH 7.6, 50 mM NaCl, 10% glycerol, 0.05% NP-40, 2 mM DTT, 4 °C, 30 min, 2 pM 32P-RNA; 4-15% native PAGE in …; RNA heated 95 °C and sn.
Chain of ciDicer (catalytically inactive human Dicer) D1320A;D1709A (Homo sapiens) (Q9UPY3 whole entry D1320A/D1709A): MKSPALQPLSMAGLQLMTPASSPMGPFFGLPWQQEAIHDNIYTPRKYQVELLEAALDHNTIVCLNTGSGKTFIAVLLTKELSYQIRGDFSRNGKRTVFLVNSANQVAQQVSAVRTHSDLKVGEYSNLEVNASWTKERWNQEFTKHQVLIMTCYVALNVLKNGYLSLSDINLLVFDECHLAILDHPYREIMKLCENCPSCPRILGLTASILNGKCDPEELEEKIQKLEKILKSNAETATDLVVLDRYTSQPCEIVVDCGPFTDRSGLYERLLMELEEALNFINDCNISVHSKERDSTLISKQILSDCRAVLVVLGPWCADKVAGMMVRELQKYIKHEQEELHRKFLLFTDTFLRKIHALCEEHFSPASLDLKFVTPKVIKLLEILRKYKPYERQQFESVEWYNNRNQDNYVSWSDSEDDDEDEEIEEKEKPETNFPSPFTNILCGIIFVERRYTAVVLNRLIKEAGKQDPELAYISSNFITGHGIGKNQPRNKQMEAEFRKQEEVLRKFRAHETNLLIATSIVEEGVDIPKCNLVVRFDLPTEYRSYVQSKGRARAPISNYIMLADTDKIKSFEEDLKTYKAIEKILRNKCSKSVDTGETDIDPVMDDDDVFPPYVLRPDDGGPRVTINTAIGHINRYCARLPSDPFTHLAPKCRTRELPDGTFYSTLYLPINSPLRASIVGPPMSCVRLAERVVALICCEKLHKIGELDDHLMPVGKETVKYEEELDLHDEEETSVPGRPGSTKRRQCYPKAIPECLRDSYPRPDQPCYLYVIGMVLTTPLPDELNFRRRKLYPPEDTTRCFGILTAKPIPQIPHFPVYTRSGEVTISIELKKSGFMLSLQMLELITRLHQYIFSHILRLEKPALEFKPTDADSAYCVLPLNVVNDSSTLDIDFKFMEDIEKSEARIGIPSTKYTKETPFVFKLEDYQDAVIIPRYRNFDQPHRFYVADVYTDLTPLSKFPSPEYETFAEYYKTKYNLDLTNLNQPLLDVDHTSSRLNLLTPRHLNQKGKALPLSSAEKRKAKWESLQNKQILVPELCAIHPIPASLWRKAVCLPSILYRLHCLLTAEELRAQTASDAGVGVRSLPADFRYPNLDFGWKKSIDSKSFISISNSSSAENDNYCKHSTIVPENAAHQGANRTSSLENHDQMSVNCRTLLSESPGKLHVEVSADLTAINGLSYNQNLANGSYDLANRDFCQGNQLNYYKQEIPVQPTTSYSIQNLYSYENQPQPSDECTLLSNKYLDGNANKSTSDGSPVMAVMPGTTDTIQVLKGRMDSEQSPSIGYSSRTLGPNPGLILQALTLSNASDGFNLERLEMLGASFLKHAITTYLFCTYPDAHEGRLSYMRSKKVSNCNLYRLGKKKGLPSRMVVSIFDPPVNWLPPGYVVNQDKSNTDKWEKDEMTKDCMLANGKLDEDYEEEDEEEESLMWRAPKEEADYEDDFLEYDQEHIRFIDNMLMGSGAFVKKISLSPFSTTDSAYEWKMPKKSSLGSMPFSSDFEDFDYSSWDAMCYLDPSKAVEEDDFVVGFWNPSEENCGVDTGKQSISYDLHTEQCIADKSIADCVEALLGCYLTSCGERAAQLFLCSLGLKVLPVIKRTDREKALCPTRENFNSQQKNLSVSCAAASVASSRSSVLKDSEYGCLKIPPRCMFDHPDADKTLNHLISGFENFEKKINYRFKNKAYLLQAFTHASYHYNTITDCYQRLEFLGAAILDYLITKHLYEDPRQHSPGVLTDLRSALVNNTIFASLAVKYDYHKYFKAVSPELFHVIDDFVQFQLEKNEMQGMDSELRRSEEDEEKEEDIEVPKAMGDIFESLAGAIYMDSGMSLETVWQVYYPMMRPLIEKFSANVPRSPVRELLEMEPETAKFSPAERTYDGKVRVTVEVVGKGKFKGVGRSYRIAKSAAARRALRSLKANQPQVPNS
Work on pre-let-7f-1 (7f1) yielded a Kd of 10 nM.

What follows are molecules tested against T1, ciDicer (catalytically inactive human Dicer) (Homo sapiens, UniProt Q9UPY3 1-1922, D1320A;D1709A) (assay: EMSA; range over five mono-U RNAs; individual value only in figure; EMSA: 50 mM Tris pH 7.6, 50 mM NaCl, 10% glycerol, 0.05% NP-40, 2 mM DTT, 4 °C, 30 min, 2 pM 32P-RNA; 4-15% native PAGE in Tris-glycine; RNA heated 95 °C and snap-cooled; no Mg2+ added to DB buffer). Settings: protein: recombinant; label: 5'-32P; hairpin, 2-nt 3' overhang.
T1 sequence (Q9UPY3 whole entry D1320A/D1709A): as above
B1 showed a Kd of roughly 19 nM.
Molecule B2 has a Kd of roughly 19 nM.
B3 was tested, and the Kd was roughly 19 nM.
B4 was tested, and the Kd was roughly 19 nM.
In the case of B5, the Kd is reported as roughly 19 nM.

Each molecule was assayed against T1, ciDicer (catalytically inactive human …) (assay: EMSA; EMSA: 50 mM Tris pH 7.6, 50 mM NaCl, 10% glycerol, 0.05% NP-40, 2 mM DTT, 4 °C, 30 min, 2 pM 32P-RNA; 4-15% native PAGE in Tris-glycine; RNA heated 95 °C and snap-cooled; no Mg2+ added to DB buffer). Settings: protein: recombinant; label: 5'-32P; hairpin, 1-nt 3' overhang (Group II).
With B6 the Kd was 14 ± 3 nM.
B7 was tested, and the Kd was 17 ± 5 nM.
Work on B8 yielded a Kd of 12 ± 7 nM.
B9 showed a Kd of 16 ± 5 nM.
For B10, the Kd was 13 ± 1 nM.
Work on B11 yielded a Kd of 16 ± 3 nM.
Molecule B12 has a Kd of 17 ± 4 nM.
B13 was tested, and the Kd was 12 ± 2 nM.

Same assay, conditions: protein: recombinant; label: 5'-32P; hairpin, 2-nt 3' overhang (Group I)
For B14, the Kd was 12 ± 5 nM.
B15 gave a Kd of 13 ± 4 nM.
Molecule B16 has a Kd of 12 ± 2 nM.

Same assay, conditions: protein: recombinant; label: 5'-32P; hairpin, 14-nt apical loop, 2-nt 3' overhang (Group I)
In the case of B17, the Kd is reported as 7 ± 2 nM.
